Values quoted from earlier work, collected in article PMC10953113 (Biomedicine & pharmacotherapy = Biomedecine & …, 2024).

Conditions: no reference given

Arginine vasopressin [AVP]
half-life (T1/2): ~ 10 min
